Drawing on publication PMC7949025, “Biophysical characterization of the ETV6 PNT domain polymerization interfaces” (The Journal of Biological Chemistry, 2021), this text covers Kd, koff and kon for 9 molecules.

In general, Kd refers to a measure of binding affinity in units of concentration. A higher Kd goes with weaker binding. By koff is commonly meant the rate constant with which the complex falls apart. Read a low koff as slow dissociation. The term kon denotes the rate constant with which the complex forms. A lower kon goes with slower complex formation.

The chains are these.
B1: L96A-V112E-PNT domain (domain or fragment, human, UniProt P41212 40-125, looked up)
chain: ALRMEEDSIRLPAHLRLQPIYWSRDDVAQWLKWAENEFSLRPIDSNTFEMNGKALLALTKEDFRYRSPHSGDELYELLQHILKQRK
notes: ETV6 PNT domain, human; source: E. coli BL21 (λDE3), purified (Ni-NTA, thrombin cleavage); not shown: His6, N-terminal, cleaved
B2: N90A-V112E-PNT domain (domain or fragment, human, UniProt P41212 40-125, looked up)
chain: ALRMEEDSIRLPAHLRLQPIYWSRDDVAQWLKWAENEFSLRPIDSNTFEMAGKALLLLTKEDFRYRSPHSGDELYELLQHILKQRK
notes: ETV6 PNT domain, human; gene purchased commercially (Biomatik); source: E. coli BL21 (λDE3), purified (Ni-NTA, thrombin cleavage); not shown: His6, N-terminal, cleaved
B3: R63A-V112E-PNT domain (domain or fragment, human, UniProt P41212 40-125, looked up)
chain: ALRMEEDSIRLPAHLRLQPIYWSADDVAQWLKWAENEFSLRPIDSNTFEMNGKALLLLTKEDFRYRSPHSGDELYELLQHILKQRK
notes: as for B1
B4: R105A-V112E-PNT domain (domain or fragment, human, UniProt P41212 40-125, looked up)
chain: ALRMEEDSIRLPAHLRLQPIYWSRDDVAQWLKWAENEFSLRPIDSNTFEMNGKALLLLTKEDFRYASPHSGDELYELLQHILKQRK
notes: as for B1
B5: N85A-V112E-PNT domain (domain or fragment, human, UniProt P41212 40-125, looked up)
chain: ALRMEEDSIRLPAHLRLQPIYWSRDDVAQWLKWAENEFSLRPIDSATFEMNGKALLLLTKEDFRYRSPHSGDELYELLQHILKQRK
notes: as for B1
B6: L97A-V112E-PNT domain (domain or fragment, human, UniProt P41212 40-125, looked up)
chain: ALRMEEDSIRLPAHLRLQPIYWSRDDVAQWLKWAENEFSLRPIDSNTFEMNGKALLLATKEDFRYRSPHSGDELYELLQHILKQRK
notes: as for B1
B7: Y104A-V112E-PNT domain (domain or fragment, human, UniProt P41212 40-125, looked up)
chain: ALRMEEDSIRLPAHLRLQPIYWSRDDVAQWLKWAENEFSLRPIDSNTFEMNGKALLLLTKEDFRARSPHSGDELYELLQHILKQRK
notes: as for B1
B8: M89A-V112E-PNT domain (domain or fragment, human, UniProt P41212 40-125, looked up)
chain: ALRMEEDSIRLPAHLRLQPIYWSRDDVAQWLKWAENEFSLRPIDSNTFEANGKALLLLTKEDFRYRSPHSGDELYELLQHILKQRK
notes: as for B1
B9: T98A-V112E-PNT domain (domain or fragment, human, UniProt P41212 40-125, looked up)
chain: ALRMEEDSIRLPAHLRLQPIYWSRDDVAQWLKWAENEFSLRPIDSNTFEMNGKALLLLAKEDFRYRSPHSGDELYELLQHILKQRK
notes: as for B1

In the assay the target is T1, biotinylated A93D-PNT domain (ETV6 residues 43-135, A93D, with Avitag) (human, UniProt P41212 43-135, A93D, biotin on the Avitag (~50 to 95% biotinylated)).
T1 construct: ETV6, human, residues 43-135; made from the V112E construct by introducing A93D and E112V; also called biotinylated A93D-PNT domain ligand; A93D-PNT domain ligand; source: E. coli BL21 (λDE3) co-transformed with pET21a-BirA, purified (Ni-NTA, thrombin cleavage); not shown: His6, N-terminal, cleaved; Avitag, N-terminal, kept
T1 sequence (looked up): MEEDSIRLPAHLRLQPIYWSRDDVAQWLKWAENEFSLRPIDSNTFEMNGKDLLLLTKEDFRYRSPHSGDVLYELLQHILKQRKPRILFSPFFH
Nature of the assay: SPR; biotinylated A93D-PNT domain ligand captured on streptavidin Sensor Chip SA, PNT domain analytes flowed; Biacore X100, 25 °C, HBS-EP+ (10 mM HEPES, 150 mM NaCl, 3 mM EDTA, 0.05% v/v Tween-20, pH 7.4); analyte 0.2-60 nM, re-run at 20-6000 nM if KD > 60 nM. As to conditions: both partners purified. In short, it runs like this:
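In a Biacore X100 at 25 °C, a streptavidin Sensor Chip SA captured biotinylated ETV6 PNT domain (residues 43-135, Avitag) diluted to 50 μg/ml in HBS-EP+, and PNT domain analytes were injected at 0.2-60 nM, or at 20-6000 nM when binding was weaker. Rate and equilibrium dissociation constants came from the Biacore kinetics/affinity software wizard.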
Background: SPR reads the build-up and loss of mass on a sensor chip optically.
B1 yielded a Kd of 1000 nM, a koff of 0.0095 s⁻¹ and a kon of 9500 M⁻¹ s⁻¹.
For B2, in that order: 480 nM, 0.037 s⁻¹ and 78000 M⁻¹ s⁻¹.
For B3, in that order: 15 nM, 0.0054 s⁻¹ and 360000 M⁻¹ s⁻¹.
For B4, in that order: 2340 nM, 0.0054 s⁻¹ and 2300 M⁻¹ s⁻¹.
Turning to B5, binding was put at a Kd of 9.9 nM, the koff was found to be 0.0034 s⁻¹ and the kon amounted to 350000 M⁻¹ s⁻¹.
Turning to B6, the Kd was 700 nM, the koff is 0.068 s⁻¹ and the kon was found to be 98000 M⁻¹ s⁻¹.
For B7, in that order: 21 nM, 0.015 s⁻¹ and 730000 M⁻¹ s⁻¹.
For B8, in that order: 340 nM, 0.033 s⁻¹ and 97000 M⁻¹ s⁻¹.
For B9 the same measures were 8.8 nM, 0.0054 s⁻¹ and 620000 M⁻¹ s⁻¹.
